Test results published in patent US11485769B2, “Peptides and combination of peptides for use in immunotherapy and methods for generating scaffolds for the use against pancreatic cancer and other cancers” (Immatics Biotechnologies GmbH, priority 2015, dated 2022).

Biological target: HLA-A*02:01 (Homo sapiens, UniProt P04439, D140Y/D185E/D98H/E176V/E277Q/G131W/G231S/I119V/I121R/I166T/I218V/L300P/L318F/N151K/N90K/P208A/P217A/Q86G/Q94H/R138H/R169H/T345S)
Test: MHC binding assay (UV-ligand exchange, beta2m ELISA, peptide exchange yield)
Conditions: binding to HLA-A*02:01 ranged by peptide exchange yield, β2m ELISA
Source text: Candidate peptides for T cell based therapies according to the present invention were further tested for their MHC binding capacity (affinity). The individual peptide-MHC complexes were produced by UV-ligand exchange, where a UV-sensitive peptide is cleaved upon UV-irradiation, and exchanged with the peptide of interest as analyzed. Only peptide candidates that can effectively bind and stabilize the peptide-receptive MHC molecules prevent dissociation of the MHC complexes. To determine the yield of the exchange reaction, an ELISA was performed based on the detection of the light chain (β2m) of stabilized MHC complexes. The assay was performed as generally described in Rodenko et al. (Rodenko et al., 2006).
96 well MAXISorp plates (NUNC) were coated over night with 2 ug/ml streptavidin in PBS at room temperature, washed 4× and blocked for 1 h at 37° C. in 2% BSA containing blocking buffer. Refolded HLA-A*02:01/MLA-001 monomers served as standards, covering the range of 15-500 ng/ml. Peptide-MHC monomers of the UV-exchange reaction were diluted 100 fold in blocking buffer. Samples were incubated for 1 h at 37° C., washed four times, incubated with 2 ug/ml HRP conjugated anti-μ2m for 1h at 37° C., washed again and detected with TMB solution that is stopped with […]. Absorption was measured at 450 nm. Candidate peptides that show a high exchange yield (preferably higher than 50%, most preferred higher than 75%) are generally preferred for a generation and production of antibodies or fragments thereof, and/or T cell receptors or fragments thereof, as they show sufficient avidity to the MHC molecules and prevent dissociation of the MHC complexes.
MHC class I binding scores. Binding of HLA-class I restricted peptides to HLA-A*02:01 was ranged by peptide exchange yield: ≥10%=+; ≥20%=++; ≥50=+++; >75%=++++

Peptide exchange (MHC class I binding score), “++” (≥20%=++):
123 (KISTITPQI; listed as Homo sapiens) [compound 123]
49 (LLDGFPRTV; listed as Homo sapiens) [compound 49]
25 (LINPNIATV; listed as Homo sapiens) [compound 25]
41 (GLLAGNEKLTM; listed as Homo sapiens) [compound 41]
39 (FLTPSIFII; listed as Homo sapiens) [compound 39]
148 (YLHNQGIGV; listed as Homo sapiens) [compound 148]
98 (ALDQKVRSV; listed as Homo sapiens) [compound 98]
18 (ALFVRLLAL; listed as Homo sapiens) [compound 18]
58 (RQYPWGVVQV; listed as Homo sapiens) [compound 58]
1 (FVDTRTLL; listed as Homo sapiens) [compound 1]
10 (VLLDKIKNL; listed as Homo sapiens) [compound 10]
121 (YLDEDTIYHL; listed as Homo sapiens) [compound 121]
36 (FLGDLSHLL; listed as Homo sapiens) [compound 36]
13 (FIDSSNPGL; listed as Homo sapiens) [compound 13]
43 (HLGVKVFSV; listed as Homo sapiens) [compound 43]
55 (NLAPAPLNA; listed as Homo sapiens) [compound 55]

Peptide exchange (MHC class I binding score), “++++” (>75%=++++):
127 (ALSDLALHFL; listed as Homo sapiens) [compound 127]
77 (RLFPGSSFL; listed as Homo sapiens) [compound 77]
151 (ALLDIIRSL; listed as Homo sapiens) [compound 151]
84 (FILPIGATV; listed as Homo sapiens) [compound 84]
136 (KLFPGFEIETV; listed as Homo sapiens) [compound 136]
116 (SMMDPNHFL; listed as Homo sapiens) [compound 116]
158 (SLIEKYFSV; listed as Homo sapiens) [compound 158]
122 (MQAPRAALVFA; listed as Homo sapiens) [compound 122]
29 (YILPFSEVL; listed as Homo sapiens) [compound 29]

Peptide exchange (MHC class I binding score), “+++” (≥50=+++):
130 (FLFGEEPSKL; listed as Homo sapiens) [compound 130]
157 (MLLEIPYMAA; listed as Homo sapiens) [compound 157]
105 (FLSEVFHQA; listed as Homo sapiens) [compound 105]
15 (FILANEHNV; listed as Homo sapiens) [compound 15]
59 (SLSESFFMV; listed as Homo sapiens) [compound 59]
38 (FLTEAALGDA; listed as Homo sapiens) [compound 38]
17 (GLIDYDTGIRL; listed as Homo sapiens) [compound 17]
48 (LLDENGVLKL; listed as Homo sapiens) [compound 48]
72 (VMASPGGLSAV; listed as Homo sapiens) [compound 72]
82 (ALIAEGIAL; listed as Homo sapiens) [compound 82]
27 (TLLAHPVTL; listed as Homo sapiens) [compound 27]
22 (ILSTEIFGV; listed as Homo sapiens) [compound 22]
142 (SLYGYLRGA; listed as Homo sapiens) [compound 142]
104 (FLQPDLDSL; listed as Homo sapiens) [compound 104]
131 (FLIEEQKIVV; listed as Homo sapiens) [compound 131]
6 (ALTGIPLPLI; listed as Homo sapiens) [compound 6]
125 (ALLGKLDAINV; listed as Homo sapiens) [compound 125]
74 (YIDKDLEYV; listed as Homo sapiens) [compound 74]
78 (SLQDTEEKSRS; listed as Homo sapiens) [compound 78]
71 (VLLPEGGITAI; listed as Homo sapiens) [compound 71]
5 (ALLTGIISKA; listed as Homo sapiens) [compound 5]
107 (FVYGGPQVQL; listed as Homo sapiens) [compound 107]
4 (ALDPAAQAFLL; listed as Homo sapiens) [compound 4]
7 (ALVDIVRSL; listed as Homo sapiens) [compound 7]
54 (LTQPGPIASA; listed as Homo sapiens) [compound 54]
19 (ALWHDAENQTVV; listed as Homo sapiens) [compound 19]
112 (LLSDVRFVL; listed as Homo sapiens) [compound 112]
110 (ILLTGTPAL; listed as Homo sapiens) [compound 110]
52 (LLSDPIPEV; listed as Homo sapiens) [compound 52]
89 (KLADIQIEQL; listed as Homo sapiens) [compound 89]
